The text below walks through data of article PMC4747905, “Structure of BRCA1-BRCT/Abraxas Complex Reveals Phosphorylation-Dependent BRCT Dimerization at DNA Damage Sites” (Molecular Cell, 2016).

The term stoichiometry N denotes a count of units in the complex or per binding partner.

B1: Abraxas peptide Ab2p(Y403A) (peptide, UniProt Q6UWZ7 399-409, looked up)
peptide: GFGEA[pS]R[pS]PTF
notes: Abraxas C-terminal peptide, as Ab2p (GFGEYpSRpSPTF) with Y403A
B2: Abraxas peptide Ab2p(E402R) (peptide, UniProt Q6UWZ7 399-409, looked up)
peptide: GFGRY[pS]R[pS]PTF
notes: Abraxas C-terminal peptide, as Ab2p (GFGEYpSRpSPTF) with E402R
B3: Abraxas peptide Ab1p (S404P) (peptide, UniProt Q6UWZ7 399-409, looked up)
peptide: GFGEYPR[pS]PTF
notes: Abraxas C-terminal peptide, as Ab1p (GFGEYSRpSPTF) with S404P
B4: Abraxas peptide Ab1p (S404D) (peptide, UniProt Q6UWZ7 399-409, looked up)
peptide: GFGEYDR[pS]PTF
notes: Abraxas C-terminal peptide, as Ab1p (GFGEYSRpSPTF) with the phosphomimetic S404D
B5: Abraxas peptide Ab2p (F400D) (peptide, UniProt Q6UWZ7 399-409, looked up)
peptide: GDGEY[pS]R[pS]PTF
notes: Abraxas C-terminal peptide, as Ab2p (GFGEYpSRpSPTF) with F400D
B6: Abraxas double phosphorylated peptide Ab2p_short (peptide)
peptide: Y[pS]R[pS]PTF
notes: Abraxas C-terminal peptide without GFGE, printed as YpSRpSPTF; source: synthesized peptide
B7: BRCT-Ab2p_short complex (complex)
chain: VNKRMSMVVSGLTPEEFMLVYKFARKHHITLTNLITEETTHVVMKTDAEFVCERTLKYFLGIAGGKWVVSYFWVTQSIKERKMLNEHDFEVRGDVVNGRNHQGPKRARESQDRKIFRGLEICCYGPFTNMPTDQLEWMVQLCGASVVKELSSFTLGTGVHPIVVVQPDAWTEDNGFHAIGQMCEAPVVTREWVLDSVALYQCQELDTYLIPQIP
peptide: YSRSPTF
modifications: phosphoserine at S404 and S406
notes: as m1: BRCA1 tandem BRCT domains; limits in the Supplemental Information; as m5: Abraxas C-terminal peptide YpSRpSPTF; the 1:1 unit of m1 and m5; source: purified BRCT mixed with peptide at 1:3 molar ratio
B8: Abraxas single phosphorylated peptide Ab1p (peptide)
peptide: GFGEYSR[pS]PTF
notes: Abraxas C-terminal peptide, printed as GFGEYSRpSPTF; source: synthesized peptide

Square brackets hold non-standard residues; d marks the D form. Ends that are not written are not given here. pS = N[C@@H](COP(=O)(O)O)C(=O)O

The first series deals with T1, BRCA1 BRCT domains (UniProt P38398 1646-1859).
T1 construct: BRCA1 tandem BRCT domains (BRCT1 and BRCT2); construct limits are in the Supplemental Information; also called BRCT domain only; source: purified; construction and purification are described in the Supplemental Information
The series can be described thus: SEC; BRCT and peptide mixed 1:3 (molar), final 1 mg/ml (about 40 μM), Superdex 75 10/300, Buffer A, 0.5 ml/min. To be noted: both partners purified. For orientation: Size exclusion chromatography separates by hydrodynamic size, large species first.
On to B1, for which the binding result is recorded as “binds”.

Turning to B2, the binding result is “binds”.

In the case of B3, the binding result is on record as “binds”.

With B4, the binding result is reported as “binds”.

For B5, the binding result is “binds”.

As for B6, the binding result is “binds”.

In the case of A[pS]R[pS]PTF (peptide, UniProt Q6UWZ7 403-409, looked up, also called Abraxas(Y403A)_short) [Abraxas peptide Ab2p(Y403A_short)], the binding result is recorded as “binds”.

The next series concerns the molecule itself. Described as above.
Conditions: not given
As for B7, the binding result is listed as “binds”.

The target of another series is T1, BRCA1 BRCT domains. Kind of series: native MS; peak fractions from gel filtration, 15 μM protein, 300 mM ammonium acetate pH 7.6, nano-electrospray. To be noted: both partners purified.
For B8, the “stoichiometry N” value came to 1.

Turning to PTRVS[pS]PVFGAT [CtIP phosphopeptide], the “stoichiometry N” value is 1.

As to ISRST[pS]PTFNKQTK [Bach1 phosphopeptide], the “stoichiometry N” value was 1.
